Consider seven compounds from patent US6703364B2, “Thrombin generation inhibitors” (Cleveland State University, priority 2001, dated 2004).

Entries after “also recorded” stand apart in the source; their conditions may differ. Residues, ends and D or L forms follow the SMILES beside them. No end group written: not given here.

Assay [1] deals with T1, prothrombinase (Homo sapiens, UniProt P00742).
T1 construct: purchased Haematologic Technologies, Inc
As to the kind of experiment: fluorescent prothrombinase assay (DAPA; conversion of prothrombin to α-thrombin). Format: biochemical. Conditions: for IC50: fluorescent assay, DAPA fluorescence, read-out: IC50 for inhibition of prothrombinase activity. An excerpt: The assay used to obtain the data shown in FIG. 4 is a fluorescent assay that is described in Example 3 of this document. Briefly, the fluorescent assay, in contrast to the visual assay, measures only one reaction of the many necessary for formation of a blood clot. The fluorescent assay measures conversion of prothrombin to a-thrombin as catalyzed by prothrombinase. A fluorescent assay reaction contains prothrombin, factor Xa, factor Va and a preparation of phospholipid vesicles, which facilitate assembly of the aforementioned components into a functioning prothrombinase enzyme.
Each fluorescent assay also contains a fluorescent compound called dansylarginine-N-(3-ethyl-1,5-pentanediyl)amide (or DAPA for short). DAPA specifically binds to α-thrombin, the product of the prothrombinase reaction. Binding of DAPA by α-thrombin increases the fluorescence intensity of DAPA. In the case where no peptide inhibitor of prothrombinase is present in the reaction, high levels of α-thrombin are produced in the reaction, and DAPA fluorescence is high. When a peptide inhibitor of prothrombinase is present, little α-thrombin is produced in the reaction, and DAPA fluorescence is low. Therefore, by measuring DAPA fluorescence, the inhibitory ability of each peptide is determined.
The identity of reactions containing each peptide, as well as the reactions containing no peptide (labeled “Xa/Va”) or no peptide and no factor Va (labeled “Xa”) is shown on the x-axis of FIG. 4.
Activities of prothrombinase, as measured by DAPA fluorescence, are shown on the y-axis of FIG. 4. […] DAPA fluorescence in the absence of both peptide and factor Va (the bar labeled “APXa” in FIG. 4) is 9% of the APXa/Va activity, and is background fluorescence.
The fluorescence assay specifically measured the conversion of prothrombin to α-thrombin, one essential reaction of the many required for blood clotting (see FIG. 1). […]
The fluorescent properties of DAPA were contributed by the dansyl moiety. When bound to α-thrombin, the fluorescence intensity and lifetime of the dansyl moiety were increased three-fold. Therefore, in this assay, when prothrombinase activity was uninhibited, α-thrombin was produced (see FIG. 1) and DAPA fluorescence was high. When prothrombinase activity was inhibited, as in the presence of peptide prothrombinase inhibitors, α-thrombin was not produced and DAPA fluorescence was low.
In a typical assay, the final concentrations of reagents were as follows: prothrombin, 1.4 μM; factor Xa, 10 nM; factor Va, 1 nM; phospholipid vesicles, 20 μM; DAPA, 3 μM; peptide, 100 μM. […] After centrifugation to isolate the vesicles, the concentration of the vesicles was determined by phosphorus assay (Gomori, 1942, J Lab Clin Med, 27:955-60). […]

The target of assay [2] is T1, prothrombinase. As to the kind of experiment: visual blood clotting assay (factor V-depleted plasma, thromboplastin, factor Va). Format: biochemical. Conditions: increasing peptide concentrations, as high as 250 μM. An excerpt:
FIG. 3 is a graph showing inhibition of prothrombinase activity by the 42 amino acid peptide NR42, encompassing amino acids 307-348 of the human factor Va heavy chain (SEQ ID NO. 2). The assay used to obtain the data shown in FIG. 3 is a visual blood clotting assay that is described in detail in Example 2 of this document.
Briefly, in the visual blood clotting assay, reactions are set up that contain all components of the blood necessary to form a blood clot and the time required for formation of a visual blood clot is recorded. To test inhibitory activity of the NR42 peptide, different concentrations of NR42 are added to a series of such reactions. […] The time required for an observable blood clot to form in the absence of NR42 peptide (0 μM peptide on the x-axis) is designated as 100% prothrombinase activity, as shown on the y-axis of FIG. 3. Inhibition of blood clotting by […] results in longer clotting times. Longer clotting times are shown on the y-axis of the graph as decreased prothrombinase activity. […]
Factor Va was purchased or, alternatively was produced by treatment of 50 nM of purified factor V (Haematologic Technologies, Inc.) with 1 nM α-thrombin for 10 min followed by the addition of 2 nM hirudin. […] This time was arbitrarily determined to be 100% activity. […]

For assay [3], the target named is prothrombinase (factor Xa plus factor Va) (human) (UniProt P00742).
Assay [4] concerns the target factor Xa (Homo sapiens (Human)) (UniProt P00742).
Where [5] appears, read: series of peptide concentrations.

T1 sequence (P00742 41-179 limits assumed): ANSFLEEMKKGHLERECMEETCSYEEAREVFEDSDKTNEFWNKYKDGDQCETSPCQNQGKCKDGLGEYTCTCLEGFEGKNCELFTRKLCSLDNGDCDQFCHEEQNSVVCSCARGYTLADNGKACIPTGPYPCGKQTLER
T1 sequence (P00742 235-488 limits assumed): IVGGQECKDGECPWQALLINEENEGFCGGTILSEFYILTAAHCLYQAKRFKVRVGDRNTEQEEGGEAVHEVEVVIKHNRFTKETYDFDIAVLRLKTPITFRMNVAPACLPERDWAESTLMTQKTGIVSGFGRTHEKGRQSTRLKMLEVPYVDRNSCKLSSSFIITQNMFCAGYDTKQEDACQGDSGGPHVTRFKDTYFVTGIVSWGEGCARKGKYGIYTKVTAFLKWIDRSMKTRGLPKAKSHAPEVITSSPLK

In general, IC50 refers to the point on the concentration scale where inhibition reaches its midpoint. Turning to `CC[C@H](C)[C@H](NC(=O)[C@H](Cc1ccccc1)NC(=O)[C@H](Cc1ccc(O)cc1)NC(=O)[C@H](CCC(=O)O)NC(=O)[C@@H](N)Cc1c[nH]c2ccccc12)C(=O)N[C@@H](C)C(=O)N[C@@H](C)C(=O)N[C@@H](CCC(=O)O)C(=O)N[C@@H](CCC(=O)O)C(=O)N[C@H](C(=O)O)C(C)C` [AP4, Trp Glu Tyr Phe Ile Ala Ala Glu Glu Val] (H-WEYFIAAEEV-OH), the IC50 in assay [1] (setting [5]) is ~5 µM.
For the compound `CC[C@H](C)[C@H](N)C(=O)N[C@@H](Cc1c[nH]c2ccccc12)C(=O)N[C@@H](CC(=O)O)C(=O)N[C@@H](Cc1ccc(O)cc1)C(=O)N[C@@H](C)C(=O)N1CCC[C@H]1C(=O)N[C@H](C(=O)N[C@H](C(=O)N1CCC[C@H]1C(=O)N[C@@H](C)C(=O)O)[C@@H](C)CC)C(C)C` [AP6, Ile Trp Asp Tyr Ala Pro Val Ile Pro Ala] (H-IWDYAPVIPA-OH), the IC50 in assay [1] (setting [5]) is ~30 µM.
Consider “DR13: control peptide encompassing amino acids 697 to 709 of the factor Va heavy chain (DADSDYQDELALI)”, for which the “effect on blood clotting time and prothrombinase activity (in words)” value was “do not significantly affect blood clotting time and prothrombinase activity” in assay [2]; “did not inhibit prothrombinase activity” in assay [2] (listed as D13R).
In the case of EYFAE (peptide), in assay [3], the IC50, inhibition of prothrombinase, fluorescent assay (DAPA) was 10 to 15 µM.
Regarding “NMDKKYRSQH [AP8, 10 amino acid peptide adjacent to and overlapping AP9]”, the “prothrombinase activity relative to the no peptide reaction” value in assay [1] (100 μM peptide, no peptide reaction (Xa/Va) = 100%, remaining activity) is “approximately 80%”.
As to “P15H: 15 amino acid peptide encompassing amino acids 337-351 of human factor Va; used as negative control (PIIPANMDKKYRSLH) [Peptide P15H]”, the “inhibition of prothrombinase activity (in words)” value in assay [1] (series of peptide concentrations, up to approximately 500 μM) is listed as “did not inhibit prothrombinase; also recorded: does not inhibit prothrombinase activity”.
As for factor Va (from UniProt P12259), the prothrombinase activity by DAPA fluorescence, factor Xa with and without factor Va (% of the Xa/Va activity) in assay [4] was determined as 9.
